Results taken from paper PMC12582335.

Columns and labels:
[1] = biological target: SARS-CoV-2 Wuhan spike protein trimer (AcroBiosystems) (SARS-CoV-2 (Wuhan)) (UniProt P0DTC2); experiment: ELISA; Wuhan spike 2 µg/mL coated; rCL-11 3 µg/mL with L-fucose or D-galactose (0 to 200 mM) or 20 mM EDTA, 18 h at 4 °C
[2] = biological target: SARS-CoV-2 Omicron BA.1 spike protein trimer (AcroBiosystems) (SARS-CoV-2 (Omicron BA.1)) (UniProt P0DTC2); experiment: ELISA; spike trimer (Wuhan or Omicron BA.1) or BSA coated on Nunc MaxiSorp plates in carbonate/bicarbonate buffer, 18 h at 4 °C; rCL-11 (CHO) in solution, either titrated on 2 µg/mL spike or 3 µg/mL on a range of spike; detected with rabbit anti-human CL-11 and HRP anti-rabbit IgG
[3] = biological target: SARS-CoV-2 Wuhan spike protein trimer (AcroBiosystems) (SARS-CoV-2 (Wuhan)) (UniProt P0DTC2); experiment: as above

recombinant collectin-11 (rCL-11), CHO-expressed (from UniProt Q9BWP8 26-271) (natural protein)
percent inhibition by L-fucose [1]: > 90%
EC50 [2]: 6 nM
EC50 [3]: 7.6 nM
